Test results reported in patent US20180273622A1 (APTEVO RESEARCH AND DEVELOPMENT, published 2018).
Changes are numbered by the printed parent chain.

B1: Fc H10L7 (TSC341) (Fc fusion)
chain: EPKSSDKTHTCPPCPAPEAAGAPSVFLFPPKPKDTLMISRTPEVTCVVVDVSHEDPEVKFNWYVDGVEVHNAKTKPREEQYNSTYRVVSVLTVLHQDWLNGKAYACAVSNKALPAPIEKTISKAKGQPREPQVYTLPPSRDELTKNQVSLTCLVKGFYPSDIAVEWESNGQPENNYKTTPPVLDSDGSFFLYSKLTVDKSRWQQGNVFSCSVMHEALHNHYTQKSLSLSPGQRHNNSSLNTGTQMAGHSPNSQVQLVQSGAEVKKPGSSVKVSCKASGGTFSRSTMHWVRQAPGQGLEWMGYINPSSAYTNYNQKFKDRVTITADKSTSTAYMELSSLRSEDTAVYYCARPQVHYDYNGFPYWGQGTLVTVSSGGGGSGGGGSGGGGSGGGGSEIVLTQSPATLSLSPGERATLSCSASSSVSYMNWYQQKPGLAPRRWIYDSSKLASGIPDRFSGSGSGTDFTLTISRLEPEDFAVYYCQQWSRNPPTFGGGTKVEIKRSSS
notes: Fc anti-CD3 scFv format; The entry is the mature protein
B2: Fc H10L5 (TSC324) (Fc fusion)
chain: EPKSSDKTHTCPPCPAPEAAGAPSVFLFPPKPKDTLMISRTPEVTCVVVDVSHEDPEVKFNWYVDGVEVHNAKTKPREEQYNSTYRVVSVLTVLHQDWLNGKAYACAVSNKALPAPIEKTISKAKGQPREPQVYTLPPSRDELTKNQVSLTCLVKGFYPSDIAVEWESNGQPENNYKTTPPVLDSDGSFFLYSKLTVDKSRWQQGNVFSCSVMHEALHNHYTQKSLSLSPGQRHNNSSLNTGTQMAGHSPNSQVQLVQSGAEVKKPGSSVKVSCKASGGTFSRSTMHWVRQAPGQGLEWMGYINPSSAYTNYNQKFKDRVTITADKSTSTAYMELSSLRSEDTAVYYCARPQVHYDYNGFPYWGQGTLVTVSSGGGGSGGGGSGGGGSGGGGSDIQMTQSPSSLSASVGDRVTITCSASSSVSYMNWYQQKPGKAPKLLIYDSSKLASGVPSRFSGSGSGTDFTLTISSLQPEDFATYYCQQWSRNPPTFGGGTKVEIKRSSS
notes: Fc anti-CD3 scFv format with H75 linker; The entry is the mature protein
B3: Fc H10L8 (TSC342) (Fc fusion)
chain: B2 chain with S403T, L438R, L439W, D462E, E473D
notes: as for B1
B4: Fc H10L6 (TSC340) (Fc fusion)
chain: B2 chain with L438R, L439W
notes: as for B1

Assays:
human CD3 [1] = target: T1, human CD3 (human, UniProt P07766 23-207; P09693 23-182; P04234 22-171; P20963 22-164); assay: flow cytometry on a Jurkat subclone with higher CD3 expression (FIG. 2)
T1 construct: whole, on cells; It was presented on the CD3+ Jurkat T-cell line, on a Jurkat subclone with higher CD3 expression, or on human T-cells; also called CD3 on Jurkat T-cells; CD3 on human T-cells

human CD3 [2] = target: T1, human CD3; assay: flow cytometry on Jurkat T-cells, anti-human IgG detection
Description: Binding studies were performed by standard flow cytometry-based staining procedures using the CD3⁺ Jurkat T-cell line. All labeling and washes were performed in U-bottom 96-well plates in saline buffer with 3% BSA and 2 mM EDTA. Jurkat cells were plated at 200,000 cells per well and incubated with a range of 0.1 nM to 200 nM concentrations of test molecules in 50 μL volume/well, for 30 minutes on ice. Cells were washed three times then incubated for another 30 minutes on ice with fluorescently-labeled minimum cross reactive secondary polyclonal antibody, F(ab′)² goat anti-human IgG, (Jackson ImmunoResearch Laboratories) and the viability dye 7-AAD. The cells were then washed twice, and the samples acquired in a BD LSRII flow cytometer. The sample files were analyzed using FlowJo software; the mean fluorescence intensity (MFI) of the live population of Jurkat cells in each well was calculated after gating on live cells (forward vs. side scatter, then 7-AAD cells).

T1 sequence (P07766 23-207, chain 1 of 4): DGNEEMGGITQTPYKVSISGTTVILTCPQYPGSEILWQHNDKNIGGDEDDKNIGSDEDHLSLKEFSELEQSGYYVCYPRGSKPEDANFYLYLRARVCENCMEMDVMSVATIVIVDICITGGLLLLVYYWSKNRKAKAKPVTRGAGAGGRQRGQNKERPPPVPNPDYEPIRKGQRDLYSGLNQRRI
T1 sequence (P09693 23-182, chain 2 of 4): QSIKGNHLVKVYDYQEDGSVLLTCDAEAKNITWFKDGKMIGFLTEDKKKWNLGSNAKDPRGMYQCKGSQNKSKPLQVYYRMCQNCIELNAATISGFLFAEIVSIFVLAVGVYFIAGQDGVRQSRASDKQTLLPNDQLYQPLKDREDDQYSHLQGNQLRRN
T1 sequence (P04234 22-171, chain 3 of 4): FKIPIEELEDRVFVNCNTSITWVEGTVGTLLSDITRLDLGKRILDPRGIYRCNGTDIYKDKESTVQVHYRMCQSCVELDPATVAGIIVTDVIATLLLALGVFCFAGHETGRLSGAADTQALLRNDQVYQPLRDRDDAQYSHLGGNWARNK
T1 sequence (P20963 22-164, chain 4 of 4): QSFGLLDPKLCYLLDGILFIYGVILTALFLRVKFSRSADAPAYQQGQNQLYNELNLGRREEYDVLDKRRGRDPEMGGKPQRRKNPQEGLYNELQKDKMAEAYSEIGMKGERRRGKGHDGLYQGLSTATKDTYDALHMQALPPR

Binder	fold higher EC50 than TSC312 (human CD3 [1])	EC50 (human CD3 [2])	fold increase in the EC50 of binding compared to TSC312 (human CD3 [2])
B1	2 fold		
B2		3.6 nM	2 fold
B3	2 fold		
B4	2 fold		
